Reference: publication PMC11199699
Changes are numbered by the printed parent chain. Names and notes keep the numbering of the source.

Key:
Assay in all cases: purified protein
[1] = substrate: O=C(O)C(=O)C[C@H](O)[C@H](O)CO; type: biochemical, Herbaspirillum huttiense; settings: 1.5 mM NAD+, 50 mM Tris-HCl pH 8.0, 30 °C
[2] = substrate: C[C@H](O)[C@@H](O)CC(=O)C(=O)O; type: biochemical, Herbaspirillum huttiense; settings: 1.5 mM NAD+, 50 mM Tris-HCl pH 8.0, 30 °C
[3] = substrate: O=C(O)C(=O)C[C@H](O)CO; type: biochemical, Herbaspirillum huttiense; settings: 1.5 mM NAD+, 50 mM Tris-HCl pH 8.0, 30 °C
[4] = substrate: O=C(O)[C@@H]1C[C@@H](O)CN1; type: biochemical, Herbaspirillum huttiense; settings: 1.5 mM NAD+, 50 mM Tris-HCl pH 8.0, 30 °C
[5] = substrate: C[C@@H](O)CC(=O)O; type: biochemical, Herbaspirillum huttiense; settings: 1.5 mM NAD+, 50 mM Tris-HCl pH 8.0, 30 °C
[6] = substrate: O=C(O)[C@H]1C[C@@H](O)CN1; type: biochemical, Herbaspirillum huttiense; settings: 1.5 mM NAD+, 50 mM Tris-HCl pH 8.0, 30 °C, substrate range 1-10 mM (Km extrapolated)
[7] = substrate: O=C(O)C(=O)C[C@@H](O)CO; type: biochemical, Herbaspirillum huttiense; settings: 1.5 mM NAD+, 50 mM Tris-HCl pH 8.0, 30 °C
[8] = substrate: O=C(O)[C@@H]1C[C@H](O)CN1; type: biochemical, Herbaspirillum huttiense; settings: 1.5 mM NAD+, 50 mM Tris-HCl pH 8.0, 30 °C
[9] = substrate: NC(=O)c1ccc[n+]([C@@H]2O[C@H](COP(=O)(O)OP(=O)(O)OC[C@H]3O[C@@H](n4cnc5c(N)ncnc54)[C@H](O)[C@@H]3O)[C@@H](O)[C@H]2O)c1; type: biochemical, Herbaspirillum huttiense; settings: 10 mM substrate, 50 mM Tris-HCl pH 8.0, 30 °C, varied: cofactor
[10] = substrate: O=C(O)C(=O)C[C@H](O)[C@@H](O)CO; type: biochemical, Herbaspirillum huttiense; settings: 1.5 mM NAD+, 50 mM Tris-HCl pH 8.0, 30 °C
[11] = substrate: NC(=O)c1ccc[n+]([C@@H]2O[C@H](COP(=O)(O)OP(=O)(O)OC[C@H]3O[C@@H](n4cnc5c(N)ncnc54)[C@H](OP(=O)(O)O)[C@@H]3O)[C@@H](O)[C@H]2O)c1; type: biochemical, Herbaspirillum huttiense; settings: 10 mM substrate, 50 mM Tris-HCl pH 8.0, 30 °C, varied: cofactor
[12] = substrate: C[C@H](O)[C@@H](O)CC(=O)C(=O)O; type: biochemical, Homo sapiens; settings: 1.5 mM NAD+, 50 mM Tris-HCl pH 8.0, 30 °C
[13] = substrate: C[C@@H](O)CC(=O)O; type: biochemical, Homo sapiens; settings: 1.5 mM NAD+, 50 mM Tris-HCl pH 8.0, 30 °C, substrate range 1-10 mM (Km extrapolated)
[14] = substrate: O=C(O)[C@@H]1C[C@H](O)CN1; type: biochemical, Homo sapiens; settings: 1.5 mM NAD+, 50 mM Tris-HCl pH 8.0, 30 °C

B1: L-KDFDH (FucF; C785_RS13675) (Herbaspirillum huttiense subsp. putei IAM 15032) (protein)
chain: MSASTGRLAGKTVLITAAAQGIGRASTELFAREGARVIATDISKTHLEELASIAGVETHLLDVTDDDAIKALVAKVGTVDVLFNCAGYVAAGNILECDDKAWDFSFNLNAKAMFHTIRAVLPGMLAKKAGSIVNIASAASSVKGVANRFAYGASKAAVVGLTKSVAADFVSQGIRCNAICPGTIESPSLNQRISTQAKETGKSEDEVRAAFVARQPMGRIGKAEEVAALALYLASDESNFTTGSIHMIDGGWSN
notes: pQE-80L, N-terminal (His)6-tag, expressed in E. coli, Ni-NTA; homotetramer; EC 1.1.1.434
**Q.** Which Km [1] does the source give for B1 here?
**A.** 6.60 ± 0.55 mM

**Q.** What about the kcat [1] of the same protein?
**A.** 8.25 ± 0.35 s⁻¹

**Q.** What about the kcat/Km [1] of the same protein?
**A.** 1250 ± 55 M⁻¹ s⁻¹

**Q.** And the Km [2]?
**A.** 0.115 ± 0.015 mM

**Q.** What about the kcat [2] of the same protein?
**A.** 15 ± 0.317 s⁻¹

**Q.** What about the kcat/Km [2] of the same protein?
**A.** 132000 ± 14000 M⁻¹ s⁻¹

**Q.** What about the Km [3] of the same protein?
**A.** 2.58 ± 0.24 mM

**Q.** And the kcat [3]?
**A.** 27.5 ± 2.03 s⁻¹

**Q.** And the kcat/Km [3]?
**A.** 10700 ± 267 M⁻¹ s⁻¹

**Q.** What about the Km [4] of the same protein?
**A.** 2.26 ± 0.27 mM

**Q.** And the kcat [4]?
**A.** 0.00165 ± 0.000105 s⁻¹

**Q.** And the kcat/Km [4]?
**A.** 0.737 ± 0.045 M⁻¹ s⁻¹

**Q.** What about the Km [5] of the same protein?
**A.** 1.79 ± 0.57 mM

**Q.** And the kcat [5]?
**A.** 0.00137 ± 0.000167 s⁻¹

**Q.** What about the kcat/Km [5] of the same protein?
**A.** 0.795 ± 0.137 M⁻¹ s⁻¹

**Q.** What about the Km [6] of the same protein?
**A.** 37.8 ± 11.5 mM

**Q.** And the Km [7]?
**A.** 5.51 ± 0.66 mM

**Q.** And the kcat [7]?
**A.** 3.37 ± 0.183 s⁻¹

**Q.** What about the kcat/Km [7] of the same protein?
**A.** 615 ± 36.7 M⁻¹ s⁻¹

**Q.** And the Km [8]?
**A.** 4.19 ± 0.35 mM

**Q.** What about the kcat [8] of the same protein?
**A.** 0.742 ± 0.0233 s⁻¹

**Q.** And the kcat/Km [8]?
**A.** 178 ± 10 M⁻¹ s⁻¹

**Q.** And the Km [9]?
**A.** 0.0302 ± 0.003 mM

**Q.** What about the kcat [9] of the same protein?
**A.** 29.2 ± 1.3 s⁻¹

**Q.** And the kcat/Km [9]?
**A.** 972000 ± 58700 M⁻¹ s⁻¹

**Q.** What about the Km [10] of the same protein?
**A.** 0.808 ± 0.073 mM

**Q.** And the kcat [10]?
**A.** 19.8 ± 1.2 s⁻¹

**Q.** And the kcat/Km [10]?
**A.** 24700 ± 750 M⁻¹ s⁻¹

**Q.** And the Km [11]?
**A.** 1.77 ± 0.30 mM

**Q.** And the kcat [11]?
**A.** 0.0678 ± 0.01 s⁻¹

**Q.** What about the kcat/Km [11] of the same protein?
**A.** 38.5 ± 1 M⁻¹ s⁻¹

B2: L-KDFDH (FucF; C785_RS13675) (Herbaspirillum huttiense subsp. putei IAM 15032; W252M) (protein)
chain: B1 chain with W252M
notes: as for B1
**Q.** Which Km [2] does the source give for B2 here?
**A.** 0.219 ± 0.006 mM

**Q.** And the kcat [2]?
**A.** 6.62 ± 0.167 s⁻¹

**Q.** And the kcat/Km [2]?
**A.** 30000 ± 83.3 M⁻¹ s⁻¹

B3: L-KDFDH (FucF; C785_RS13675) (Herbaspirillum huttiense subsp. putei IAM 15032; D41S/I42R) (protein)
chain: B1 chain with D41S, I42R
notes: as for B1
**Q.** Which results are given for B3?
**A.** Km [11]: 0.200 ± 0.004 mM; kcat [11]: 3.6 ± 0.0667 s⁻¹; kcat/Km [11]: 18050 ± 83.3 M⁻¹ s⁻¹

B4: BDH2 (Homo sapiens) (protein)
chain: MGRLDGKVIILTAAAQGIGQAAALAFAREGAKVIATDINESKLQELEKYPGIQTRVLDVTKKKQIDQFANEVERLDVLFNVAGFVHHGTVLDCEEKDWDFSMNLNVRSMYLMIKAFLPKMLAQKSGNIINMSSVASSVKGVVNRCVYSTTKAAVIGLTKSVAADFIQQGIRCNCVCPGTVDTPSLQERIQARGNPEEARNDFLKRQKTGRFATAEEIAMLCVYLASDESAYVTGNPVIIDGGWSL
notes: recombinant (His)6-tagged, expressed in E. coli, purified
**Q.** With B4 as the protein, how does the Km [12] read?
**A.** 0.0322 ± 0.0033 mM

**Q.** And the kcat [12]?
**A.** 3.67 ± 0.183 s⁻¹

**Q.** What about the kcat/Km [12] of the same protein?
**A.** 114000 ± 5830 M⁻¹ s⁻¹

**Q.** And the Km [13]?
**A.** 18.5 ± 2.9 mM

**Q.** And the kcat [13]?
**A.** 0.0698 ± 0.00483 s⁻¹

**Q.** And the kcat/Km [13]?
**A.** 3.8 ± 0.333 M⁻¹ s⁻¹

**Q.** And the Km [14]?
**A.** 0.220 ± 0.061 mM

**Q.** And the kcat [14]?
**A.** 4.88 ± 0.5 s⁻¹

**Q.** And the kcat/Km [14]?
**A.** 22800 ± 3670 M⁻¹ s⁻¹
